Laboratory results: patent US20050287522A1
Each block holds one substance with its values, some of them ahead of it.

Tests used:
[1] = target: tEGFR-ω fusion (extracellular and transmembrane regions of the EGF receptor fused to the ω fragment); test: cell-based or functional assay
[2] = target: ω-NLS (ω fragment fused to a triplet SV40 nuclear localization signal); test: cell-based or functional assay
Chain of ω-NLS (ω fragment fused to a triplet SV40 nuclear localization signal) (P00722 other isoform, or with tags, fused parts or gaps): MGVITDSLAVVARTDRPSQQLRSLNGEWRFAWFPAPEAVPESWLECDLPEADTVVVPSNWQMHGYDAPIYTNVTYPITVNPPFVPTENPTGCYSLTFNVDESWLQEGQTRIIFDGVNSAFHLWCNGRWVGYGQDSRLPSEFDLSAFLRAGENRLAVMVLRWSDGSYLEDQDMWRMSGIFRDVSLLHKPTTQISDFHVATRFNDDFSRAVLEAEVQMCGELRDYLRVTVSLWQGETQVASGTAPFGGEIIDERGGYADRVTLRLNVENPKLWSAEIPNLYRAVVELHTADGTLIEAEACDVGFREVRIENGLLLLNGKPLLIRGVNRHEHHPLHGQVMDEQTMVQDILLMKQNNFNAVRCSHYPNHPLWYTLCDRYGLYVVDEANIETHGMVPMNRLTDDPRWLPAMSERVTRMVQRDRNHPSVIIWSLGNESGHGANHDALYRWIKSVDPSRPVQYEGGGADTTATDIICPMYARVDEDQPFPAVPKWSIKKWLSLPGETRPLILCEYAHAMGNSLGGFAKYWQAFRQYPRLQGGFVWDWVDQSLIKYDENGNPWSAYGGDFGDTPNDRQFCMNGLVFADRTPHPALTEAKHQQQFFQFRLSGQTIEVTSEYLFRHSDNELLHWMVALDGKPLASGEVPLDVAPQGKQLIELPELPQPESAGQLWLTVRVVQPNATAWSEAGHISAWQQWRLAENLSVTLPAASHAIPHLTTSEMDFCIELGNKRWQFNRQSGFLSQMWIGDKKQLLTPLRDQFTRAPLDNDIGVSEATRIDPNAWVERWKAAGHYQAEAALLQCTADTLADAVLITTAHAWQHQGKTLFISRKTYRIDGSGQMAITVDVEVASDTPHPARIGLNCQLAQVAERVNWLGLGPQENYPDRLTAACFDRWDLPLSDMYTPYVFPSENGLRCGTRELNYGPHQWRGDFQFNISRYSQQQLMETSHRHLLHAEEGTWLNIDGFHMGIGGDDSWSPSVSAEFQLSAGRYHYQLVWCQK

Chain of tEGFR-ω fusion (extracellular and transmembrane regions of the EGF receptor fused to the ω fragment) (P00722 other isoform, or with tags, fused parts or gaps): as above

Substance: NES-GFP-α-NLS protein (MEK nuclear export signal, GFP, α peptide, triplet SV40 NLS) (from UniProt P42212 1-238)
- β-galactosidase activity after leptomycin B for 2 hours (gain of signal assay, luminescent substrate) (fold increase) [2]: 3.5
- β-galactosidase activity after leptomycin B (loss of signal assay) (fold decrease) [1]: 5

Substance: glucocorticoid receptor fused to the amino-terminus of the GFP-α fusion (from UniProt P42212 1-238)
- change in β-galactosidase activity with dexamethasone, DDAO substrate, flow cytometry of live cells [2]: 5 to 10 fold change
- difference in β-galactosidase activity at 30 min of dexamethasone (gain of signal assay) [2]: 100%
- β-galactosidase activity after 1 µM dexamethasone for 3 hours (gain of signal assay) (fold induction) [2]: 3.5
- change in β-galactosidase activity with dexamethasone, DDAO substrate, flow cytometry of live cells [1]: 5 to 10 fold change
- difference in β-galactosidase activity at 30 min of dexamethasone (loss of signal assay) [1]: 25%
- β-galactosidase activity after 1 µM dexamethasone for 3 hours (loss of signal assay) [1]: 5 fold

Substance: PH domain of AKT fused to the GFP-α chimera (from UniProt P42212 1-238)
- increase in β-galactosidase activity on PDGF, luminescent assay in 3T3 cells [1]: 5 fold
- increase in β-galactosidase activity on insulin, luminescent assay in 3T3 cells [1]: 2.5 fold
- increase in β-galactosidase activity on osmotic shock (sorbitol), luminescent assay in 3T3 cells [1]: 8 fold

Results, then the substance that gave them:

- fold induction of β-galactosidase activity on PMA (NIH 3T3 cells, membrane translocation assay) (fold induction) [1]: 7
Substance: C1A domain of PKCγ fused to the GFP-α H31R point mutant (from UniProt P42212 1-238)

- increase in β-galactosidase activity on PMA (NIH 3T3 cells, membrane translocation assay) [1]: < 10 % increase
Substance: C1A domain of PKCγ fused to GFP-α (wild type α peptide) (from UniProt P42212 1-238)
